Reference: PMC5123574, “Redox cofactors insertion in prokaryotic molybdoenzymes occurs via a conserved folding mechanism” (Scientific Reports, 2016)
Substitutions are numbered along the chain they refer to. Names and notes keep the numbering of the source.

Biological target: the molecule itself
Experiment: SAXS; SEC-coupled SAXS (SWING beamline, SOLEIL); ~25 mg/mL in Tris-HCl 40 mM pH 7.6, 8% glycerol, online Agilent BioSEC-3 300 Å column; Mw from SAXSMoW, volume from DAMMIF; NarGH heterodimers into a trimer

B1: holoNarGH, Moco-loaded soluble catalytic NarGH complex of nitrate reductase A (complex, E. coli)
chain 1: MSKFLDRFRYFKQKGETFADGHGQLLNTNRDWEDGYRQRWQHDKIVRSTHGVNCTGSCSWKIYVKNGLVTWETQQTDYPRTRPDLPNHEPRGCPRGASYSWYLYSANRLKYPMMRKRLMKMWREAKALHSDPVEAWASIIEDADKAKSFKQARGRGGFVRSSWQEVNELIAASNVYTIKNYGPDRVAGFSPIPAMSMVSYASGARYLSLIGGTCLSFYDWYCDLPPASPQTWGEQTDVPESADWYNSSYIIAWGSNVPQTRTPDAHFFTEVRYKGTKTVAVTPDYAEIAKLCDLWLAPKQGTDAAMALAMGHVMLREFHLDNPSQYFTDYVRRYTDMPMLVMLEERDGYYAAGRMLRAADLVDALGQENNPEWKTVAFNTNGEMVAPNGSIGFRWGEKGKWNLEQRDGKTGEETELQLSLLGSQDEIAEVGFPYFGGDGTEHFNKVELENVLLHKLPVKRLQLADGSTALVTTVYDLTLANYGLERGLNDVNCATSYDDVKAYTPAWAEQITGVSRSQIIRIAREFADNADKTHGRSMIIVGAGLNHWYHLDMNYRGLINMLIFCGCVGQSGGGWAHYVGQEKLRPQTGWQPLAFALDWQRPARHMNSTSYFYNHSSQWRYETVTAEELLSPMADKSRYTGHLIDFNVRAERMGWLPSAPQLGTNPLTIAGEAEKAGMNPVDYTVKSLKEGSIRFAAEQPENGKNHPRNLFIWRSNLLGSSGKGHEFMLKYLLGTEHGIQGKDLGQQGGVKPEEVDWQDNGLEGKLDLVVTLDFRLSSTCLYSDIILPTATWYEKDDMNTSDMHPFIHPLSAAVDPAWEAKSDWEIYKAIAKKFSEVCVGHLGKETDIVTLPIQHDSAAELAQPLDVKDWKKGECDLIPGKTAPHIMVVERDYPATYERFTSIGPLMEKIGNGGKGIAWNTQSEMDLLRKLNYTKAEGPAKGQPMLNTAIDAAEMILTLAPETNGQVAVKAWAALSEFTGRDHTHLALNKEDEKIRFRDIQAQPRKIISSPTWSGLEDEHVSYNAGYTNVHELIPWRTLSGRQQLYQDHQWMRDFGESLLVYRPPIDTRSVKEVIGQKSNGNQEKALNFLTPHQKWGIHSTYSDNLLMLTLGRGGPVVWLSEADAKDLGIADNDWIEVFNSNGALTARAVVSQRVPAGMTMMYHAQERIVNLPGSEITQQRGGIHNSVTRITPKPTHMIGGYAHLAYGFNYYGTVGSNRDEFVVVRKMKNIDWLDGEGNDQVQESVK
chain 2: MKIRSQVGMVLNLDKCIGCHTCSVTCKNVWTSREGVEYAWFNNVETKPGQGFPTDWENQEKYKGGWIRKINGKLQPRMGNRAMLLGKIFANPHLPGIDDYYEPFDFDYQNLHTAPEGSKSQPIARPRSLITGERMAKIEKGPNWEDDLGGEFDKLAKDKNFDNIQKAMYSQFENTFMMYLPRLCEHCLNPACVATCPSGAIYKREEDGIVLIDQDKCRGWRMCITGCPYKKIYFNWKSGKSEKCIFCYPRIEAGQPTVCSETCVGRIRYLGVLLYDADAIERAASTENEKDLYQRQLDVFLDPNDPKVIEQAIKDGIPLSVIEAAQQSPVYKMAMEWKLALPLHPEYRTLPMVWYVPPLSPIQSAADAGELGSNGILPDVESLRIPVQYLANLLTAGDTKPVLRALKRMLAMRHYKRAETVDGKVDTRALEEVGLTEAQAQEMYRYLAIANYEDRFVVPSSHRELAREAFPEKNGCGFTFGDGCHGSDTKFNLFNSRRIDAIDVTSKTEPHP
notes: NarG, nitrate-reducing catalytic subunit of respiratory nitrate reductase A, E. coli; carries Mo-bisPGD and the [4Fe-4S] cluster FS0; Printed residue numbers (Arg108, Glu794) follow the crystal structure 1q16; NarH, electron-transfer subunit of respiratory nitrate reductase A, E. coli; carries four Fe/S clusters (FS1-4); The unit written here is the NarGH heterodimer (~200 kDa), which is trimeric …
  stoichiometry N: 3

B2: NarG_(R108A)H_(His6) complex (complex, E. coli)
chain 1: B1 chain 1 with R108A
chain 2: B1 chain 2
notes: NarG, catalytic subunit of respiratory nitrate reductase A, E. coli, with R108A; NarH, electron-transfer subunit of respiratory nitrate reductase A, E. coli; The unit is the NarGH heterodimer; His6 put on NarH from the plasmid name; also called R108A NarGH; NarGH variant; source: E. coli with pNarG_(R108A)H_(His6)J, purified
  binding result: binds

B3: apoNarGH, cofactor-less NarGH complex produced in absence of NarJ (complex, E. coli)
chain 1: B1 chain 1
chain 2: B1 chain 2
notes: NarG, nitrate-reducing catalytic subunit of respiratory nitrate reductase A, E. coli; here devoid of FS0 and Moco; Printed residue numbers follow the crystal structure 1q16; NarH, electron-transfer subunit of respiratory nitrate reductase A, E. coli; The unit is the NarGH heterodimer; His6 put on NarH from the plasmid name; also called Moco-less His-tagged NarGH complex
  stoichiometry N: 3
